From patent US20240059763A1 (ZHUHAI TRINOMAB PHARMACEUTICAL, published 2024) come the findings set out here.

In assay [1] the target is T1, RSV Pre-F protein (pre-fusion conformation of the F protein of RSV A2 strain) (RSV A2 strain, UniProt P03420 26-513).
T1 construct: Recombinant trimeric protein; also called pre-fusion F protein; antigen Pre-F protein
The assay is described as follows: SPR (Biacore X100), TRN1021 captured on anti-human IgG (Fc), Pre-F as analyte at 2.5-40 µg/mL. For orientation: SPR reads the build-up and loss of mass on a sensor chip optically.

In assay [2] the target is T1, RSV Pre-F protein (pre-fusion …). The assay is described as follows: ELISA, RSV Pre-F coated on the plate, TRN1021 in 3-fold dilutions, anti-human IgG-HRP, OD450.

Broadly, the Kd is the equilibrium constant for the complex coming apart. A high value points to a looser complex. For orientation: EC50 (read off the curve) means the concentration giving half of the maximal effect. High values mean lower potency in that assay, low ones higher potency in that assay.

T1 sequence (P03420 26-513): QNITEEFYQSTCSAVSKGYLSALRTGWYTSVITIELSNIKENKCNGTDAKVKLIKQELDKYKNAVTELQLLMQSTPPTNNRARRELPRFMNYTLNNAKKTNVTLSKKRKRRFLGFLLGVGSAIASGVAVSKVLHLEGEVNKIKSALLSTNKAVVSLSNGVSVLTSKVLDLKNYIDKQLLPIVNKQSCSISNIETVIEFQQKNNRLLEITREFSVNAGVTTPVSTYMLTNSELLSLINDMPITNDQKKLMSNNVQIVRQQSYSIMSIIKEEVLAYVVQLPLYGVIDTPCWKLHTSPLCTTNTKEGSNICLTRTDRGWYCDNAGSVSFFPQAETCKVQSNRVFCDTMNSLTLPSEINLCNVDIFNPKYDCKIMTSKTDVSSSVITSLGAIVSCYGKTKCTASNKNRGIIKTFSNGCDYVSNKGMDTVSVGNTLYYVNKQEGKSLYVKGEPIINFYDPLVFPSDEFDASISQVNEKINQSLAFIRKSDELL

B1: fully human anti-RSV monoclonal antibody TRN1021 (antibody, V domains shown)
VH: QVQLVQSGAEVKKPGESLKISCQGSGYSFNNYYIGWVRQMPGKGLEWMVIIYPGDSDTKYSPSFQGQVTVSADRSINTAYLQWSSLRASDTAVYYCVRMDTVTTGAGVGFNWFFDLWGRGTLVTVSS
VL: EIVLTQSPATLSVSPGERATLSCRASQSVTSYLAWYQQKPGQAPRLLIYGASSRATGVPARFSGSGSETEFTLTISSLQSEDFAVYYCQQYNDWPAITFGQGTRLENK
notes: It was expressed in HEK293 cells as a whole human antibody, purified on Protein A, detected with anti-human IgG and captured through anti-human IgG (Fc); also called fully human anti-RSV-F protein monoclonal antibody TRN1021
B1 showed a Kd in assay [1] of roughly 1 nM. Further, the 50% effective concentration (EC50 (read off the curve)) in assay [2] was roughly 8 ng/mL.
